Experiment: soluble on expression in E. coli; label from the status in PepcDB or PDB records

Row | Sequence | soluble on expression in E. coli
1 | MTKYALVGDVGGTNARLALCDIASGEISQAKTYSGLDYPSLEAVVRVYLDEHSVSVEDGCIAIACPITGDWVAMTNHTWAFSIAEMKKNLGFSHLEIINDFTAVSMAIPMLKKEHLIQFGGGEPVDGKPIAVYGAGTGLGVAHLVHVDKRWISLPGEGGHVDFAPNSEEEAMILEILRAEIGHVSAERVLSGPGLVNLYRAIVKSDNRLPENLRPKDITERALADSCIDCRRALSLFCVIMGRFGGDLALTMGTFGGVYIAGGIVPRFLEFFKASGFRGGFEDKGRFKDYVHGIPVYLIVHDNPGLLGSGAHLRQTLGHIL | not soluble
2 | MGSDKIHHHHHHMDDRPLFGPFARKGSYSRVQVFDHLFADDRFTALYQEIAILPEVDELMLYRRYLQKEDRVLVHGNFSATLFNTLCAEGYDLYLVESELTRIAGIADPYLHRVYGLSNEVVDVMGSHAFNKIILPGTTIARYSRGELLLFFRNIRHLLATDGQLLISIHNADYLRQNVQPIASRRMEDCTLFYGQKVDRDRLIFNTYLKSASDEKVGYVVEHLYETDTLFEFAKLSRYRGRTLYAGKSISILEFDKIG | not soluble
3 | MFERFDSDRSRYASLGVVSSLPSGLIDSIWLIIDLNLKGVIPLNDLLHFDLLNNNGKVTVHFSQENSSVEMAIDLPFSYSTAYPSRIFAFDDGHRETILLPAEMLES | soluble
4 | MSAAASMFVRQFFHGTRADLSPGELIVVGYQSNFTTAAPLSWVYFSGTLDAAIWGAELAAGDAPQRIYVVEPTGPFEDDPNLTDKKFPGNPTLSYRSKHPLRIVAEMTKWQGHSPERVQQMKDGLARLSAEGAEIID | not soluble
5 | MSQSNTLTVQILDKEYCINCPDDERANLESAARYLDGKMREIRSSGKVIGADRVAVMAALNITHDLLHRKERLDQESSSTRERVRELLDRVDRALANPADAGEA | soluble
6 | MIARLAIAALLVSSSLACLPGLGGLGGGCGGAAASPCAAPPMPPPVSCGGGCGAAPYPAGPMAAPYFAPAAIAPPPPPQGAVIGVGAQPAVYSAPLPAGNAYVGQGK | not soluble
7 | MGSHHHHHHDITSLYKKAGSENLYFQMKLRYLNILKEKLGREPTFVELQAFSVMWSEHCGYSHTKKYIRRLPKTGFEGNAGVVNLDDYYSVAFKIESHNHPSAIEPYNGAATGVGGIIRDVLAMGARPTAIFDSLHMSRIIDGIIEGIADYGNSIGVPTVGGELRISSLYAHNPLVNVLAAGVVRNDMLVDSKASRPGQVIVIFGGATGRDGIHGASFASEDLTGDKATKLSIQVGDPFAEKMLIEAFLEMVEEGLVEGAQDLGAGGVLSATSELVAKGNLGAIVHLDRVPLREPDMEPWEILISESQERMAVVTSPQKASRILEIARKHLLFGDVVAEVIEEPVYRVMYRNDLVMEVPVQLLANAPEEDIVEYTPGKIPEFKRVEFEEVNAREVFEQYDHMVGTDTVVPPGFGAAVMRIKRDGGYSLVTHSRADLALQDTYWGTLIAVLESVRKTLSVGAEPLAITNCVNYGDPDVDPVGLSAMMTALKNACEFSGVPVASGNASLYNTYQGKPIPPTLVVGMLGKVNPQKVAKPKPSKVFAVGWNDFELEREKELWRAIRKLSEEGAFILSSSQLLTRTHVETFREYGLKIEVKLPEVRPAHQMVLVFSERTPVVDVPVKEIGTLSR | soluble
8 | MGSDKIHHHHHHMTPSAGLGLKSQHYGDAIACDAEGLWFEVHPENYMSAGGPRLAALEAVRARRPVSLHGVGLSLAADTDPDPEHLQALKRLVDRFDPFVVSEHLAWSTHRGAHHPDLLPFPRTRAALDRICGNVARMQDALQRRVLIENPSLYLPLKGHALDEVDFLEALATRTGCGLLVDVNNVFVSAQNLGYAPETYLDALPAHAIGEIHLAGHAPDPGGSNLLIDTHGAPVAEVVWTLYARLIARIGPRPTLIERDDDIPDFAALMAERNRAVAVLASGQTAREPAHV | not soluble
9 | MGSDKIHHHHHHMLMDSLQEIICEKRTYTRLYHSHKHAYSQFLFPLEGSIDLETEGRQVKLNPDHFLYIPPQCEHRFRSIGRNECLVLDVPLHAMKIDEYRAGSGIEAALDPFWSSIRYLLTEEAKAGTANSLHMLVQYIKEKLQSHSYASIAYIHSHLFERLTIKKLAEIEHYHPAYYSSWFKKQTGKSPQNYIADLRLEEAKRMLMERNETLTVVSEALGFQNLSSFTRWFTKSTGMPPRLYRNTLYSDKK | not soluble
10 | MMNYRKADMKDISLLVSIRKRQLIDEGIEPNIDIDKELTRYFNNKLANNLLVEWIAEENNQIIATAAIAFIDFPPTYTNKTGRKGYITNMYTEPTSRGNGIATGMLDRLVNEAKERNIHKICLVASKLGRPVYKKYGFQDTDEWLELNLLEHHHHHH | soluble
11 | MGSDKIHHHHHHMSVQESVGGDVTGWWPSDNESLSPYPLYRERFCREGGLQPVFSGRTVLLPLRPGLLLSMREGQALTDLRGKREVGPAMHLEILFAAEGYSVVSGSTERYPFKPNTVSLQVTSSAVVAEFFIPAGAVIRSLAVRFSGLYLDHLASKGGFAALCSGGGDPLLLSRGVDLVMRPLSPALRPLASQILATEGATDGERLFLEAKILELISVVLSTPASGGGQSQTEPTKTALSRRDHKKIGQARELLIGDLDKTWKIKDLARHVGMNENKLKAGFRQIYDNSIYAYLQDWRMRAASHRLKQGEDSVTGVALSVGYSNPAHFAKVFRRYFGVSPSRYAEDGAPGPKKDNETY | not soluble
12 | SSGLVPRGPLGSHMDAVDATMEKLRAQCLSRGASGIQGLARFFRQLDRDGSRSLDADEFRQGLAKLGLVLDQAEAEGVCRKWDRNGSGTLDLEEFLRALRPPMSQAREAVIAAAFAKLDRSGDGVVTVDDLRGVYSGRAHPKVRSGEWTEDEVLRRFLDNFDSSEKDGQVTLAEFQDYYSGVSASMNTDEEFVAMMTSAWQLKL | soluble
13 | PITDERVYESIGHYGGETVKIVRIEKARDIPLGATVRNEMDSVIISRIVKGGAAEKSGLLHEGDEVLEINGIEIRGKDVNEVFDLLSDMHGTLTFVLIPS | soluble
14 | GSSALLDTDEVGSELDDSDDDYLISEGEEDGPDENLMLCLYDKVTRTKARWKCSLKDGVVTINRNDYTFQKAQVEAEWV | soluble
15 | MAHHHHHHMSEKKEYINPAGLRLDGRRPQESRRMTLEFGKVLGCDGCCTVMSGLATVCASVYGPREVTNRLESKYNECIITCEVAIAAFAGEKRRAPQRRSKLSEEMSAAVLEVARSVVLLSQYPNSQIHICVEVLRQDGSDKAACINAACLALVDACVAMRDIVYAQTVGLIHAVDVVDLTTEEMRSQCPTICIAVKGHDPSSIVWMESNCRVTSEVVSRLVTVAQKSSEGVFAAALRGPLEEHAAAILKLQGNLGNGD | not soluble
16 | MPITNASPENILRYLHAAGTGTKEAMKSATSPRGILEWFVNFFTCGGVRRSNERWFREVIGKLTTSLLYVNKNAFFDGNKIFLEDVNGCTICLSCGAASENTDPMVIIEVNKNGKTVTDKVDSERFWNVCRMLKLMSKHNIQQPDSLITEDGFLNLRGVNLAHKDFQGEDLSKIDASNADFRETTLSNVNLVGANLCCANLHAVNLMGSNMTKANLTHADLTCANMSGVNLTAAILFGSDLTDTKLNGAKLDKIALTLAKALTGADLTGSQHTPTPLPDYNDRTLFPHPIF | not soluble
17 | MNEFEDLLNSVSEVNPGDVVTAEVLTVDNGQANVVIDGTGVEGVLTLRELTNDRDADINDFVKAGDTVEVLVLRQVVGKDTDTVTFLVSKKRLEARKAWDKLVGREGEVVTVKGTRAVKGGLSVEFEGLRGFIPASMIDTRFVRNTEKFVGQEFDAKIKEVDAAENRFILSRREVVEESAAAARKEVFSNIEVGSVVTGKVARLTSFGAFIDLGGVDGLVHVTELSHERNVSPKSVVTVGEEVEVKVLSIDEEAGRVSLSLKATTPGPWDGVEQKLAAGDVIEGKVKRLTDFGAFVEVLPGIDGLVHISQISHKRVENPKDVLSAGQEVTVKVLEVNSDAERVSLSMKALEERPAQAEGEKEEKRQSRPRRPRRQEKRDYELPETQTGFSMADLFGDIELLEHHHHHH | soluble

From the DeepSol protein solubility set
